From patent publication US20210069244A1

Molecular target: CD19 antigen on CD19 positive RS4;11 and Raji cells (human) (UniProt P15391)
Assay: cell-based or functional assay

Sequence of UniProt P15391 (P15391 20-556): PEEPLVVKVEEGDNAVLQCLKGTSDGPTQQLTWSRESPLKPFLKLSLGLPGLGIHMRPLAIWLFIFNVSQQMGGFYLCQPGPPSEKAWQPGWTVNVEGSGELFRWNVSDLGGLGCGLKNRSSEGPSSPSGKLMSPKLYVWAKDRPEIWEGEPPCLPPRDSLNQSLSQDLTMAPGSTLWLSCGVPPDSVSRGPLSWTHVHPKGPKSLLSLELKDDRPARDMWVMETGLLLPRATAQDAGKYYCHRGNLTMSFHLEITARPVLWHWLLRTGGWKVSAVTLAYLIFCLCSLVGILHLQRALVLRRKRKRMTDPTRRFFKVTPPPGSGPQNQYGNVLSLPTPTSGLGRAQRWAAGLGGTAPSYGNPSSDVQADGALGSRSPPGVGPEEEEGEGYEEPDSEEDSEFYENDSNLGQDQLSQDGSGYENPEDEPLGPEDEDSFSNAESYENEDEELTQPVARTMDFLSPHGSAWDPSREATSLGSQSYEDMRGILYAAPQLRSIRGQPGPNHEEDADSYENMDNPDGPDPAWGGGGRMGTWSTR

FMC63 artificial CAR19
cytotoxicity, RS4;11 cells, CAR19 T cell:tumor cell 5:1, donor 1, 4 h co-culture (calcein AM/PI flow cytometry): 45.8% | cytotoxicity, RS4;11 cells, CAR19 T cell:tumor cell 5:1, donor 2, 4 h co-culture (calcein AM/PI flow cytometry): 65.6% | cytotoxicity, RS4;11 cells, CAR19 T cell:tumor cell 10:1, donor 1, 4 h co-culture (calcein AM/PI flow cytometry): 55.8% | cytotoxicity, RS4;11 cells, CAR19 T cell:tumor cell 10:1, donor 2, 4 h co-culture (calcein AM/PI flow cytometry): 77.1% | cytotoxicity, Raji cells, CAR19 T cell:tumor cell 1:1, donor 1, 4 h co-culture (calcein AM/PI flow cytometry): 4.17% | cytotoxicity, Raji cells, CAR19 T cell:tumor cell 1:1, donor 2, 4 h co-culture (calcein AM/PI flow cytometry): 46.4% | cytotoxicity, Raji cells, CAR19 T cell:tumor cell 2:1, donor 1, 4 h co-culture (calcein AM/PI flow cytometry): 25.3% | cytotoxicity, Raji cells, CAR19 T cell:tumor cell 2:1, donor 2, 4 h co-culture (calcein AM/PI flow cytometry): 59.9% | percentage of CD19 positive RS4;11 cells remaining after 24 h co-culture with CAR-T cells: 45.1% | percentage of CD19 positive Raji cells remaining after 24 h co-culture with CAR-T cells: 7.42%
